The target in data set [1] is T1, TDP-43 hN12 WT (human, UniProt Q13148 1-259). Description: filter binding; 2 uM protein; Filter binding: 50 mM phosphate, 50 mM imidazole, 10 mM beta-mercaptoethanol, pH 7.5, room temperature, 30 min, 10 pmol 32P-labelled nucleic acid. As to conditions: protein: recombinant; chain copies: 2.
Data set [2] deals with T2, TDP-43 RRM1 (hRRM1) WT (human, UniProt Q13148 101-191). The experiment in a line: crystal structure 2.75 A; Filter binding: 50 mM phosphate, 50 mM imidazole, 10 mM beta-mercaptoethanol, pH 7.5, room temperature, 30 min, 10 pmol 32P-labelled nucleic acid. To be noted: protein: recombinant; tags: N-terminal His (pQE30).
T2 sequence (Q13148 101-191): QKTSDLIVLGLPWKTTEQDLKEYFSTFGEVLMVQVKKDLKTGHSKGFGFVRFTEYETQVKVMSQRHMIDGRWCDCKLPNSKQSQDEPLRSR
The target of data set [3] is T1, TDP-43 hN12 WT. The experiment in a line: filter binding; Filter binding: 50 mM phosphate, 50 mM imidazole, 10 mM beta-mercaptoethanol, pH 7.5, room temperature, 30 min, 10 pmol 32P-labelled nucleic acid. To be noted: protein: recombinant; chain copies: 2; label: 5'-32P.
Data set [4] has as its target T2, TDP-43 RRM1 (hRRM1) WT. Described as above. To be noted: protein: recombinant; tags: N-terminal His (pQE30); label: 5'-32P.

Our source for the binding signal, binding result and Kd values is article PMC3985631, “The crystal structure of TDP-43 RRM1-DNA complex reveals the specific recognition for UG- and TG-rich nucleic acids”.

T1 sequence (Q13148 1-259): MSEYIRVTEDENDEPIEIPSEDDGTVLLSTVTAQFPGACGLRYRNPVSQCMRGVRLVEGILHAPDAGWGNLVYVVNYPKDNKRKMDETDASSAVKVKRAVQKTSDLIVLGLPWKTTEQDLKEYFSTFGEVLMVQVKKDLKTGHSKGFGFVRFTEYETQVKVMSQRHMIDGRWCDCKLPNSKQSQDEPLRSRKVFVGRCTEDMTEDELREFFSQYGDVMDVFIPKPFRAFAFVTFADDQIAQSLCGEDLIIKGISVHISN

On to CGCGUGCCCCUG (ssRNA) [PS2], for which the binding signal in data set [1] was 6.2 ± 0.8 % bound. GTTGAGCGTT (ssDNA, 2'-methylseleno-adenosine at A5) [10-nt Se-labelled ssDNA]: the binding result in data set [2] is recorded as “binds”. Take AGAGUGAAAAUG (ssRNA) [PS1]: the binding signal in data set [1] is 23.1 ± 0.8 % bound. For the molecule UGUGUGUGUGUGUGUGUGUGUGUGUGUGUG (ssRNA) [(UG)15 RNA], the Kd – broadly, a measure of binding affinity in units of concentration – in data set [3] was 5.3 ± 1.2 nM. On to TGTGTGTGTGTGTGTGTGTGTGTGTGTGTG (ssDNA) [(TG)15 DNA], for which the Kd in data set [4] is 20.6 ± 1.8 nM. With CACACACACACA (ssRNA) [(CA)6 RNA], in data set [1], the binding signal came out at 0.6 ± 1 % bound. Still for that read-out and setting: with UGUGUGUGUGUG (ssRNA) [(UG)6 RNA] the figure was 67.9 ± 1.9 % bound.
